T1: recombinant human EpCAM extracellular domain (human, UniProt P16422 24-265)
T1 construct: extracellular domain; Plate-coated antigen of the ELISAs; also called human EpCAM ECD; recombinant EpCAM antigen
T1 sequence (looked up): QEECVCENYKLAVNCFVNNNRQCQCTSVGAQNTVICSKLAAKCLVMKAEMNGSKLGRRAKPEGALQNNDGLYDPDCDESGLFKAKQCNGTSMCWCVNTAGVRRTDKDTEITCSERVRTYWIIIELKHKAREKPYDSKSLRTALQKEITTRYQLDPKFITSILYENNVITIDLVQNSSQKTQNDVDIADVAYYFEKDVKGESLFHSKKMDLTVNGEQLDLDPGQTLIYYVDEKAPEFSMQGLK

T2: human EpCAM expressed on cells (CHO, Colo205, 293) (human, UniProt P16422 24-314)
T2 construct: whole, on cells; also called CHO cells expressing human EpCAM; Colo205 cells expressing human EpCAM
T2 sequence (looked up): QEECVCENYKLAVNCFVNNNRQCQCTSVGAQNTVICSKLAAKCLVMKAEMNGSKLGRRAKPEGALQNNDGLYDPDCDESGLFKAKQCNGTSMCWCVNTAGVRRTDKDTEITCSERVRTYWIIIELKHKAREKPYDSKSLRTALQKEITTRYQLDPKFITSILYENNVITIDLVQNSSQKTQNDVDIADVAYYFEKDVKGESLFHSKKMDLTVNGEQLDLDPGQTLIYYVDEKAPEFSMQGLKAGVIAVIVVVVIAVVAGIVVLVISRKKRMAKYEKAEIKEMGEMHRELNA

T3: chimeric human/mouse EpCAM-ECD 1 (Homo sapiens (Human), UniProt P16422 24-265)
T3 construct: also called ch1EpCAM-his; chimeric EpCAM-ECD 1
T3 chain: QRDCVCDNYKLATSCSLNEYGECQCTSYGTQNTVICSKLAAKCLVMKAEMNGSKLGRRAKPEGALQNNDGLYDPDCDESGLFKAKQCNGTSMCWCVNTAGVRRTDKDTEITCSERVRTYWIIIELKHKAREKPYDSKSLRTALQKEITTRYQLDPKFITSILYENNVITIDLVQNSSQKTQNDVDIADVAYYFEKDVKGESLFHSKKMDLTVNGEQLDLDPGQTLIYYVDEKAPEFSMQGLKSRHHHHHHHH

T4: mouse EpCAM-ECD with C-terminal His-tag (expressed in CHO cells) (mouse, UniProt Q99JW5 24-266)
T4 construct: extracellular domain
T4 sequence (looked up): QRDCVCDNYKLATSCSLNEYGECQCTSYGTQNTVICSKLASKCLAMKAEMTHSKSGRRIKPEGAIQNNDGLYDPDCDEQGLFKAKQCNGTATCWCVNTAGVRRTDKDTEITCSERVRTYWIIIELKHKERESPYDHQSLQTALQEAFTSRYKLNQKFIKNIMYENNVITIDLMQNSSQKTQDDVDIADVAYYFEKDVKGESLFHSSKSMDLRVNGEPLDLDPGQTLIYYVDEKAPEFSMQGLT

T5: rat EpCAM (rat, UniProt O55159 24-266, limits assumed)
T5 sequence (looked up): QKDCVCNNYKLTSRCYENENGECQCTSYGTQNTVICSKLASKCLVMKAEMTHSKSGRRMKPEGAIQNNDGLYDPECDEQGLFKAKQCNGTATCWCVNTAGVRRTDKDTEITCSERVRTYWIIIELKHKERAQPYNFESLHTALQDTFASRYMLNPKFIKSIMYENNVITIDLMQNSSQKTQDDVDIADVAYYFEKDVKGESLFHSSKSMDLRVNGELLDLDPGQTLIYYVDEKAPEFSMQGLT

T6: mouse EpCAM (mouse, UniProt Q99JW5 24-266)
T6 construct: extracellular domain; also called mouse EpCAM-ECD
T6 sequence (looked up): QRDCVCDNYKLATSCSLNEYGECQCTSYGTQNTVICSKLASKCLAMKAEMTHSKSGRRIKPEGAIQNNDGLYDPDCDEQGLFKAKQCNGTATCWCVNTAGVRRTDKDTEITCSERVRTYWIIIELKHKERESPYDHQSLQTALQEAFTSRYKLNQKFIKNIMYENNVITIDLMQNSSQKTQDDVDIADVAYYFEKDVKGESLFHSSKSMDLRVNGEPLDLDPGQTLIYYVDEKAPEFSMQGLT


Columns and labels:
[1] = molecular target: T7, cyno EpCAM expressed on 293 cells (cynomolgus monkey); assay: FACS on 293 cells expressing cyno EpCAM, pH 6.0
T7 construct: whole, on cells; also called 293 cells expressing cyno EpCAM
T7 sequence (Q1WER1 24-314): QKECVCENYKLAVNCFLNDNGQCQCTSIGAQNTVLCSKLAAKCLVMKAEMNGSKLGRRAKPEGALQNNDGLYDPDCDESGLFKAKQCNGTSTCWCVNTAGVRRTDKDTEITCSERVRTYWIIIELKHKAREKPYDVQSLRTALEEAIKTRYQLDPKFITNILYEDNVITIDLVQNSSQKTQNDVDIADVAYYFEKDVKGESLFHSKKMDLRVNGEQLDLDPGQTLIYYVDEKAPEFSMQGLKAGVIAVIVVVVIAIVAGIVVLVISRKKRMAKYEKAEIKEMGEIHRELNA
Procedure: (§1) A similar FACS analysis was also carried out using 293 cells expressing cyno EpCAM. […] The EC50 values for binding to the 293 cells expressing cyno EpCAM by the humanized conditionally active anti-EpCAM antibodies are summarized in Table 11.

[2] = molecular target: T1, recombinant human EpCAM extracellular …; assay: ELISA, human EpCAM, pH 6.0
Procedure: (§2) The binding activities of the humanized conditionally active anti-EpCAM antibodies to human EpCAM were measured by ELISA, using the template antibody BAP-1-5-01-06, as a control. The EC50 values of the humanized conditionally active anti-EpCAM antibodies for binding to human EpCAM at pH 6.0 and pH 7.4 are summarized in Table 5.
(§3) The ELISA assay was performed using the following protocol: [0388] 1) Coat ELISA plates with 100 μL of 0.5 μg/mL (06_20_17 and 06_28_17 Experiments) or 1 μg/mL (07_06_17 and 07_11_17 Experiments) recombinant EpCAM antigen in carbonate-bicarbonate coating buffer [0389] 2) Cover plates with sealing film and incubate overnight at 4° C. [0390] 3) Decant plates and tap out residual liquid on a stack of paper towels [0391] […] 5) Add 200 μL of various pH incubation buffers to the wells according to the sample map.

[3] = molecular target: T2, human EpCAM expressed on cells (CHO, …); assay: FACS on 293 cells expressing human EpCAM, pH 7.4
Procedure: (§4) A similar FACS analysis was also carried out using 293 cells expressing human EpCAM. […] The EC50 values for binding to the 293 cells expressing human EpCAM by the humanized conditionally active anti-EpCAM antibodies are summarized in Table 10.

[4] = molecular target: T7, cyno EpCAM expressed on 293 cells; assay: FACS on 293 cells expressing cyno EpCAM, pH 7.4
Procedure: as §1

[5] = molecular target: T1, recombinant human EpCAM extracellular …; assay: ELISA, human EpCAM, pH 7.4
Procedure: as §2, §3

[6] = molecular target: T8, cyno EpCAM (recombinant, ELISA antigen) (cynomolgus monkey); assay: ELISA, cyno EpCAM, pH 7.4
T8 construct: extracellular domain; also called cynomolgus EpCAM extracellular domain
T8 sequence (Q1WER1 24-265): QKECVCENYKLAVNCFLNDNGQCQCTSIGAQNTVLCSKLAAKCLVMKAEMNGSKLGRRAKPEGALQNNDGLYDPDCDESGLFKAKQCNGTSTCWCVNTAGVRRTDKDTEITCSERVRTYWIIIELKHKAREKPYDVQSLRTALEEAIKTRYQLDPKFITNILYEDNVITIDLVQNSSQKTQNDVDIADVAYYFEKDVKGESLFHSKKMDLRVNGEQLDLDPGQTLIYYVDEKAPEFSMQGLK
Procedure: (§5) The binding activities of the humanized conditionally active anti-EpCAM antibodies to cyno EpCAM were similarly measured. The EC50 for binding to the cyno EpCAM at pH 6.0 and pH 7.4 for the humanized conditionally active anti-EpCAM antibodies are summarized in Table 7.
as §3

[7] = molecular target: T2, human EpCAM expressed on cells (CHO, …); assay: FACS on 293 cells expressing human EpCAM, pH 6.0
Procedure: as §4

[8] = molecular target: T8, cyno EpCAM (recombinant, ELISA antigen); assay: ELISA with pH titration, cyno EpCAM
Procedure: The binding activities of the humanized conditionally active anti-EpCAM antibodies to cyno EpCAM with pH titration was similarly measured by ELISA.
as §3

[9] = molecular target: T2, human EpCAM expressed on cells (CHO, …); assay: FACS on Colo205 cells expressing human EpCAM, pH 7.4
Procedure: (§6) Binding activities of the humanized conditionally active anti-EpCAM antibodies to Colo205 cells expressing human EpCAM were measured by FACS at pH 6.0 and pH 7.4. […] The EC50 values for binding to the Colo205 cells expressing human EpCAM by the humanized conditionally active anti-EpCAM antibodies are summarized in Table 9.

[10] = molecular target: T3, chimeric human/mouse EpCAM-ECD 1; assay: ELISA on purified His-tagged ECDs
Source text: (§7) Human, mouse and the four chimeric EpCAM extracellular domains were expressed with a C-terminal His-tag in CHO cells and purified.

[11] = molecular target: T4, mouse EpCAM-ECD with C-terminal His-tag …; assay: ELISA on purified His-tagged ECDs
Source text: as §7

[12] = molecular target: T8, cyno EpCAM (recombinant, ELISA antigen); assay: ELISA, cyno EpCAM, pH 6.0
Procedure: as §5, §3

[13] = molecular target: T1, recombinant human EpCAM extracellular …; assay: ELISA with pH titration, human EpCAM
Procedure: The binding activities of the humanized conditionally active anti-EpCAM antibodies to human EpCAM with pH titration were also measured by ELISA.
as §3

[14] = molecular target: T2, human EpCAM expressed on cells (CHO, …); assay: FACS on Colo205 cells expressing human EpCAM, pH 6.0
Procedure: as §6

rat EpCAM = molecular target: T5, rat EpCAM; assay: hybridoma screening, ELISA
mouse EpCAM = molecular target: T6, mouse EpCAM; assay: hybridoma screening, ELISA

EC50 [1]	EC50 [2]	EC50 [3]	EC50 [4]	EC50 [5]	EC50 [6]	EC50 [7]	pH inflection point [8]	EC50 [9]	binding result [10]	binding result [11]	EC50 [12]	pH inflection point [13]	EC50 [14]	binding result (rat EpCAM)	binding result (mouse EpCAM)	Binder
1.6 µg/mL	0.0134 µg/mL	0.154 µg/mL	11.6 µg/mL	50 µg/mL	7.17 µg/mL	0.129 µg/mL	6.35 pH	0.418 µg/mL	no binding	no binding	0.49 µg/mL	6.83 pH	0.342 µg/mL			BAP-105.4-01-05 (antibody, V domains shown, Humanized) VH: EVQLVQSGAEVKKPGATVKISCKVSGYTFTSYWMHWIRQPPGKGLEWIGYIRPSTGYTEYNQKFKDRFTISRDNSKNTLYLQMNSLRAEDTAVYYCGRGDNWVGFANWGQGTLVTVSS VL: EIVLTQSPDFQSVTPKEKVTITCSASSSISYMHWYQQKPGKAPKLLIYSTSNLASGVPDRFSGSGSGTDFTLKISRVEAEDVGVYYCHQWSTYETFGQGTKVEIK
														no binding	no binding	antibody of hybridoma clone 12C10F12 (antibody, V domains shown) VH: QVQLQQSGAELAKPGASVKVSCKASGYTFTSYWMHWVKQRPGQGLEWIGYIRPSTGYTEYNQKFKDKATLTADKSSSTAYMQLSSLTFEDSAVYYCGRGDNWVGFANWGQGTLVTVSA VL: QIVLTQSPAIMSASLGEEIALTCSASSSISYMHWYQQKSGTSPKLLIYSTSNLASGVPSRFSGSGSGTFYSLTISSVEAEDAADYFCHQWSTYHTFGSGTKLEIK
